Laboratory results taken from the nanobody polyreactivity screen of Harvey et al. (2022).

Test: yeast display, Sf9 membrane polyspecificity reagent, FACS + sequencing; frameworks hold sequencing errors
How it was run: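 Synthetic nanobody libraries on Saccharomyces cerevisiae BJ5465 were galactose-induced for 36–48 hours, stained 1 hour at 4 °C with 10% biotinylated, detergent-solubilized Sf9 membrane reagent and enriched on streptavidin microbeads. FACS then separated cells into low and high (top ~1%) gates by anti-HA (expression) and streptavidin (reagent binding) fluorescence. Genes were colony-PCR amplified, MiSeq 2 × 250 sequenced and CDR-length filtered. A clone's polyreactivity label is that of its gate of origin.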

Row | Sequence | polyreactivity (PSR sort gate)
1 | QVQLVESGGGLVQAGGSLRLSCAASGLTFYFYAMGWYIQAPGKERELVAAIDWGGGSTYYADSVKGRFTISRDYAKNTVYLQMNSLKPEDTAVYYCAARGYYYNYDVNYWGQGTQVTVSS | low polyreactivity
2 | QVQLVESGGGLVQAGGSLRLSCAASGRIIYGNTMGWYRQAPGKEREFVATITRSGGSTYYADSVKGRFTISRDNAKNTVYLQMNSLKPEDTAVYYCNAQPSVYYGRWGLNYVYWGQGTQVTVSS | high polyreactivity
3 | QVQLVESRGGLVQAGGSLRLSCAASGFTFRYYAMGWYRQAPGKERELVARITRCASTSYADSVKGRFTISRDNAKNTVYLLMISLIPEDTAVYYCAADSPAGGYVFPELPYDYWGQGTQVTVSS | low polyreactivity
4 | QVQLVESGGGLVQAGGSLRLSCAASGRIFSSYTMGWYRQAPGKERELVAAISWRGGSTYYADSVKGRFTISRDNAKNTVYLQMNSLKPEDTAVYYCAADSRSHPGDYWGQGTQVTVSS | low polyreactivity
5 | QVQLVESGGGLVQAGGSLRLSCAASGFTFGSYAMGWYRQAPGKEREFVAAIRRSGSSTYYADSVKGRFTISRDYAKNTVYLQMNSLKPEDTAVYYCAADVYRRLRRYRYYYWGQGTQVTVSS | low polyreactivity
6 | QVQLVESGGGLVQAGGSLRLSCGASGFTFRPYAMGWYRQAPGKERELVAAITSGDSTNYADSVKGRFTISCDNAKNTVYLQMNSLKPEDTAVYYCAADSTGRPSVSYDYWGQGTQVTVSS | low polyreactivity
7 | QVQLVESGGGLVQAGRSLRLSCAASGRTYSVYAMGWYRKAPGKETELLAGITSGGSTNYADSVKGRFTISRDNAKNTVYLQMNSLNPEDTAVYYCAAENVYAGFGFVSIGDYWGQGTQVTVST | low polyreactivity
8 | QVQLVESGGGLVQAGGSLRLIFAASGFIFETYAMGWYRQAPGKERELVAAISRGASTYYADSVKGRFTISRDNAKNTVYLQMNSLKPEDTAVYDCAAKRLSWHRYGYWGQGTQVTVSS | low polyreactivity
9 | QVQLVESGGGLVQAGGSLRLSCAASGNIFYQYAMGWYRQAPGKEREFVAAISISGTSTYADSVKGRFTISRDNAKNTVDLQLNSLKPEDTEVYWGQGTQVTVSS | low polyreactivity
10 | QVQLVESGGGLVQAGGSLRLSCAASGFTFQSYAMGWYRQAPGKERELVATIRTRGGSTSYADSVKGRFTISRDNAKNTVYLQMNSLKPEDTAVYYCNGRLSYRSAWYYGGDRYDYWGQGTQVTVSS | high polyreactivity
11 | QVQLVESGGGLVQAAGILRLSCAASGSIFVTNAKGWYRQAPGKERELVAAISSGGNTNYADSVKGRFTISRDNAKNTVYLQINSLKPVDTAVYYCAKDPDKVDSVDMDYWGHGTQVTVSS | low polyreactivity
12 | QVQIVESGGGLVQAGGSLRLSCAASGYIFIVYTMGWYRQAPGKERELVAAISSGGITDYADSVKGRFTLSRDNAKNTLYIQMTRLKPEDTAVYYWGQGTQVTVSS | low polyreactivity
13 | QVQLVESGGGLVQAGGSLRLSCAASGNTFVSNAMGWYRPAPGKERELVAAINSGGSTNYADSVKGRFTISRDNAKNTVYLQMNSLKPEDTAVYYCNKYYDYPQRYWMDYWGQGTQVTVSS | low polyreactivity
14 | QVQLVESGGGLVQAGGSLRLSCAASGSIFQHNDMGWYRQAPGKERELVAAMSRSGGSTYYADSVKGRFTISRDNAKNTVYLQRNSLKPEDTAVYYCNAGRRTGRYAYWGQGTQVTVSS | high polyreactivity
15 | QVQLVESGGGLVQAGGSLRLSCAASGRIFNKNAMGWYRQAPGKERELVAAITYSGGSTYYADSVKGRFTISRDNAKNTVYLQMNSLKPEDTAVYYSARDLYYVYSFAPYRYEYWGQGTQVTVSS | low polyreactivity
16 | QVQLVESGGGLVQAGGSLRLRCAASGYIFGAYALGWYRQAPGKERELVAAIHVGDASAYYADSVKGRFTISRDNAKKTVYLQMNSLKPEDTAVYYCAKDRGSWEWYTVDYWGQGTQVTVSS | low polyreactivity
17 | QVQLVESGGGLVQAGGSLRLSCAASGSTLYGNVMGWYRQAPGKESELVATINRGGSTNYADSVKGRFTISRDNAKNTVYLQMNSLKPEDTAVYYCAARAFAWYYLEDYWGQGTQVTVSS | low polyreactivity
18 | QVQLVESGGGLLQAGGSLRLSCAASGRIYSIYAMGWYRQAPGKERELVASITGSGGTTYYADSVKGRFTISRDIAKNTVYLQMNSLKPEDTAVYYCAAVFYGFVGYYNEDYWGQGSQVTVSS | low polyreactivity
19 | QVQLVESGGGLVQAGGSLRLSCAASGSTFYRYAMGWYRQAPGKERELVAAISSDGTTYYADSVKGRFTISRDNAKNTVYLQMNSLKPEDTAVYYCAKRGYYRSRRYDYWGQGTQVTVSS | high polyreactivity
20 | QVQIVESGGGLVQAGGSLRLSCAASGIIFYYYAMGWYRPAPGKERELVAGISYSGGSTYADSVKGLFTISRDNAKNTVYLQMNSLKPEDTAVYDCAADYDYGGHWYDYWGQGTQVTVSS | low polyreactivity
21 | QVQIVESGGALYQAGGSLRLICAASGSTFSQYAMGWYRQEPGKERELLPTINSGGSTNYADSVKGRFTISRDNAMNTVYLQMNSLKPEETAVYYCAAREDLYLYYNGQRVQYDYWGQGTQVTVSS | low polyreactivity
22 | QEQLQESGGGLVLAGGSLSLSCPESGYISWSFTMGWYRKAPGKEREFVAGITYGGITYYADSVKGRFTIRRDNGKNTVYLQLNSLKPEDTAVFYCAAPQTYPYVYVYWGQGTQVTVCS | high polyreactivity

Row | Sequence | polyreactivity (PSR sort gate)
23 | QVQLVESGGGLVQAGGSLRLSCAPSGRTFWAYAMGWYRQAPGKERELVAAITTSGGSTNYADSVKGRFTISRDNAKNTVYLQMNSLKPEDTAVYYCNADPTYHVVNGVGYWGQGTQVTESS | low polyreactivity
24 | QVQLVESGGGLVQAGGSLRLSCAASGSIFYFNAMGWYRQAPGKERELVADITSGGSTYYADSVKGRFTISRDNAKNTVYLQMNSLKPEDTAVYYCNAALPVTRSERYGSDYWGQGTQVTVSS | low polyreactivity
25 | QVQLVESGGGLVQAGGSLRLSCAASGFTFKYYDMGWYRQAPGKERELVAGITWDGGSTTYSDSVKGRFTISRDNAKNTVYLQMNSLKPEDTAVYYCAADVRYTSPFYYYLGAYYYWGQGTQVTVSS | low polyreactivity
26 | QVQRVESGGGLVQAGGSLRLTSAGSGLTFILNAMGWYRQAPGKEREFVAAISRSGVRTYYADSVKGRFTISRDNAKNTVYLQMNSLKPEDTAVYYCAAAAQRGSKPRVELDYWGQGSQVTVSS | high polyreactivity
27 | QVQLVESGGGLVQAGGSLRLSCAASGSIFSGYVMGWYRQAPGKERELVAAISSGGSTYYADSVKGRFTISRDNAKNTVYLQMNSLKPEDTAVYYCAARSRKYGLLFYYWGQGTQVTVSS | high polyreactivity
28 | QVQLVESGGGLVQAGGSLRLSRAASGVIIYRYAMGWYRQAPGKERELVAAISRSGGSTYYADSVKGRFTISRDNAMNTVYLQMNCLKPEDTAVYYCAADRGSLAPGNDYWGQGTQVTVSS | high polyreactivity
29 | QVQLVESGGGLVQAGGSLRLSCAASGFTFYYYAMGWYRQAPGKERELVAAISSSGVRTYYADSVKGRFTISRDNAKNTVYLQMKSLKPEDTAVYYCATVGRGFPSVELDYWGQGTQVTVSS | high polyreactivity
30 | QDQLEESGGGLVQAGGSLRLSCAASGRMFNSYAMGWYRQAPGKERELVAAISFSGGSTYYADSVKGRFTISRDNAKNTVYLQMNSLKPEDTAVYYCNAVTAVDTAHDYWGQGTQVTVSS | high polyreactivity
31 | QVQLVESGGGLVQAGGSLRLSSAASGRIFGYNAMGWYRQAPGKERELVAVITYRGTSTYYADSVKGRFTISRDNAKNTVYLQMNSLKPEDTAVYYCAAVNGGYWRYYYWGQGTQVTVSS | high polyreactivity
32 | QVQLVESGGGLVQAGGSLRLSCAASGSNFTVYDMGWYRQAPGKERELVAAISFSGGSTYYADSVKGRFTISRDTAKNTVYLQMNSLKPVDTAVYYCAADTYTTPYEYWGQGTQVTVSS | low polyreactivity
33 | QVQLVESGGGLVQAGGSLRLSCAASGSIFEQNVMGWYRQAPGKERELVAAITRGGSTNYADSVKGRFTISRDNAKNTVYLQMNSLKPEDTAVYYCAKRRWLGPSTLDYWGQGTQVTVSS | low polyreactivity
34 | QVQLVESGGGLVQAGGSLRLSCASSGFTFVYNAMGWYRHAPGKERELVAAITSGGNTYYADSVKGRFTISRDNAKNTVYLQMNSLIPEDTAVYYCAKRGYGRYYAYDYWGQGTQVTVSS | high polyreactivity
35 | QVQLVESGAGLVQAGGSLRLSCAASGIIIPYYVMGRYRQAPGKEMELVAAISGSGGSTYYADSVKGRFTISRDNAKYTVYLQLNSLKPEAPAVYYCARYYYQFGGYEYWGQGTQVTVSS | high polyreactivity
36 | QVQLVESGGGLVQAGGSLRLSCAASGRTLRINAMGWYRQAPGKERELVAAISRSGGRTYYADSVKGRFTISRDNAKNTVYLQRNSLKPEDTAVYYCATGGVAYNYGWGQYYYWGQGTQVTVSS | high polyreactivity
37 | KVQLVESGGGLVQAGGSLRLSCAASGLIFYDNMGWYRQAPGKERELVAAISSSGGSTSYADSVKGRFTISRDNAKITVYLQMNSLKPEDTAVYYFAADSYPAYLGFVGFDYWGQGTQVTVSS | low polyreactivity
38 | QVQLVESGGGLVQAGGSLRLSCAASGNIFYYNAMGWSRQGPGKEMELVAAISSGGSTNYADSVKGRFTISRDNAKNTVYLQMNSLKPEDTAVYYCAANYVTIGSGYYGYDYWGQGTQVTVSS | low polyreactivity
39 | QVQHVESGGGLVQAGGSLRLSGAAYGRTFLYNAKGWNIQAPGKERELVAVISKRGGRTYYADSVKGRFTISRDNAKNTVYLQMKSLKPEDTAVYYCGAAYVTPPGPLRYNEYYWGQGSQVTVSS | high polyreactivity
40 | QVQLVESGGGLVQAGGSLRLSCAAYSYVMGWYRQAPGKERELVAAISQSGGSTYYADSVKGRFTISRDNAKNTVYLQMNSLKPEDTAVYYCAARREPYQYNQYYSWGQGTQVTVSS | high polyreactivity
41 | QFQHVESGGGLVQAGGSLRLSCAASGNTFYVYAMGWYRQAPGKERELVAGITTSGGSTYYADSVKGRFTISRDNAKNTVYLQMNSLKTEDTAVYYCATDISTSYYYKYSSFYQYDSWGQGTQVTVSS | low polyreactivity
42 | QVQLVESGGGLVQAGGRLRLSCAASGRIFYNYAMGWYRQAPGKERELVASINFSGTRTYYADSVKGRFTISRDYAKNHVYLQMNSLKPEDTAVYYCAARQAHGYYYWGQGTQVTVSS | high polyreactivity
43 | QVQLVESGGGLVQAGGSLRLSCAASGSTYTRYAMGLYRQAPGKEMELVATINVSGDRTYYADSVKGRFTISRDNAKNTVYLQMNSLKPEDTAVYYCNKYRYQWPYRRFDYWGQGTQVTVSS | high polyreactivity
